Reference: publication doi:10.1101/2025.03.19.644215 (bioRxiv, 2025)

Target: the molecule itself
Test: cryo-EM structure; Dmc1 2.5 uM with 0.125 uM 96-mer ssDNA in HR buffer with 1.5 mM CaCl2 and 5 mM ADP, 30°C 5 min, then 8 mM CHAPSO; helical filament in the ADP-bound state (interdigitated filaments masked to a single filament); filament formation required the ssDNA

B1: S. cerevisiae Dmc1 (natural protein)
chain: MSVTGTEIDSDTAKNILSVDELQNYGINASDLQKLKSGGIYTVNTVLSTTRRHLCKIKGLSEVKVEKIKEAAGKIIQVGFIPATVQLDIRQRVYSLSTGSKQLDSILGGGIMTMSITEVFGEFRCGKTQMSHTLCVTTQLPREMGGGEGKVAYIDTEGTFRPERIKQIAEGYELDPESCLANVSYARALNSEHQMELVEQLGEELSSGDYRLIVVDSIMANFRVDYCGRGELSERQQKLNQHLFKLNRLAEEFNVAVFLTNQVQSDPGASALFASADGRKPIGGHVLAHASATRILLRKGRGDERVAKLQDSPDMPEKECVYVIGEKGITDSSD
notes: Dmc1 meiotic recombinase, Saccharomyces cerevisiae; expressed from a plasmid encoding 6XHisDmc1; Stood in the assay as a helical filament of many protomers, assembled with a 96-nt ssDNA, ADP, Mg2+ and Ca2+; no removal of the His tag is described; also called Dmc1-ADP; source: E. coli BL21 (DE3) Rosetta2, purified (Talon resin, heparin sepharose)
  binding result: binds
